Article PMC11007443, “A selection and optimization strategy for single-domain antibodies targeting the PHF6 linear peptide within the tau intrinsically disordered protein” (The Journal of Biological Chemistry, 2024)

B1: VHH Z70 (VHH)
VHH: EVQLQASGGVFVQSGGSLRLSCAASGATSTFDGMGWFRQAPGKEREFVSAISYEQGSYTYYADSVKGRFTISRDNSKNMVYLQMNSLRAEDTATYYCAPAYEGDLYAFDSYGGQGTQVTVSS
notes: VHH Z70; also in PDB 7QCQ; also called parent VHH; source: E. coli BL21 (DE3), periplasm, purified (IMAC, SEC)
B2: VHH Z70 mutant 9 (P101S + G115E) (VHH)
VHH: EVQLQASGGVFVQSGGSLRLSCAASGATSTFDGMGWFRQAPGKEREFVSAISYEQGSYTYYADSVKGRFTISRDNSKNMVYLQMNSLRAEDTATYYCASAYEGDLYAFDSYGEQGTQVTVSS
notes: as the chain of m1 (VHH Z70); also called Mut9; source: E. coli BL21 (DE3), periplasm, purified (IMAC, SEC)
B3: VHH Z70 mutant 14 (VHH)
VHH: EVQLQASGGVFVQSGGSLRLSCAASGATSIFDGMGWFRQAPGKEREFVSAISYGQGSYTYYADSVKGRFTISRDNSKNMVYLQMNSLRAEDTATYYCAPAYEGDLYAFDSYGEQGTQVTVSS
notes: as the chain of m1 (VHH Z70); The text says only that G115E is combined with additional substitutions in mutant 14; also called Mut14; source: E. coli BL21 (DE3), periplasm, purified (IMAC, SEC)
B4: VHH Z70 mutant 3 (R47K) (VHH)
VHH: EVQLQASGGVFVQSGGSLRLSCAASGATSTFDGMGWFRQAPGKEKEFVSAISYEQGSYTYYADSVKGRFTISRDNSKNMVYLQMNSLRAEDTATYYCAPAYEGDLYAFDSYGGQGTQVTVSS
notes: as the chain of m1 (VHH Z70); also called Mut3; source: E. coli BL21 (DE3), periplasm, purified (IMAC, SEC)
B5: VHH Z70 mutant 12 (S23C + G115E) (VHH)
VHH: EVQLQASGGVFVQSGGSLRLCCAASGATSTFDGMGWFRQAPGKEREFVSAISYEQGSYTYYADSVKGRFTISRDNSKNMVYLQMNSLRAEDTATYYCAPAYEGDLYAFDSYGEQGTQVTVSS
notes: as the chain of m1 (VHH Z70); also called Mut12; source: E. coli BL21 (DE3), periplasm, purified (IMAC, SEC)
B6: VHH Z70 mutant 5 (T96S) (VHH)
VHH: EVQLQASGGVFVQSGGSLRLSCAASGATSTFDGMGWFRQAPGKEREFVSAISYEQGSYTYYADSVKGRFTISRDNSKNMVYLQMNSLRAEDTASYYCAPAYEGDLYAFDSYGGQGTQVTVSS
notes: as the chain of m1 (VHH Z70); also called Mut5; source: E. coli BL21 (DE3), periplasm, purified (IMAC, SEC)
B7: VHH Z70 mutant 20 (R47K + G115E) (VHH)
VHH: EVQLQASGGVFVQSGGSLRLSCAASGATSTFDGMGWFRQAPGKEKEFVSAISYEQGSYTYYADSVKGRFTISRDNSKNMVYLQMNSLRAEDTATYYCAPAYEGDLYAFDSYGEQGTQVTVSS
notes: as the chain of m1 (VHH Z70); Generated by the authors, not found in the screen; also called Mut20; source: E. coli BL21 (DE3), periplasm, purified (IMAC, SEC)
B8: VHH Z70 mutant 1 (G115E) (VHH)
VHH: EVQLQASGGVFVQSGGSLRLSCAASGATSTFDGMGWFRQAPGKEREFVSAISYEQGSYTYYADSVKGRFTISRDNSKNMVYLQMNSLRAEDTATYYCAPAYEGDLYAFDSYGEQGTQVTVSS
notes: as the chain of m1 (VHH Z70); also called Mut1; source: E. coli BL21 (DE3), periplasm, purified (IMAC, SEC)
B9: VHH Z70 mutant 15 (R90G + P101S + G114E) (VHH)
VHH: EVQLQASGGVFVQSGGSLRLSCAASGATSTFDGMGWFRQAPGKEREFVSAISYEQGSYTYYADSVKGRFTISRDNSKNMVYLQMNSLGAEDTATYYCASAYEGDLYAFDSYEGQGTQVTVSS
notes: as the chain of m1 (VHH Z70); also called Mut15; source: E. coli BL21 (DE3), periplasm, purified (IMAC, SEC)

target: tau 2N4R (recombinant; 15N-labelled for NMR) (Homo sapiens, UniProt P10636-8); test: cell-based or functional assay; conditions: not given
Sequence (P10636 other isoform, or with tags, fused parts or gaps): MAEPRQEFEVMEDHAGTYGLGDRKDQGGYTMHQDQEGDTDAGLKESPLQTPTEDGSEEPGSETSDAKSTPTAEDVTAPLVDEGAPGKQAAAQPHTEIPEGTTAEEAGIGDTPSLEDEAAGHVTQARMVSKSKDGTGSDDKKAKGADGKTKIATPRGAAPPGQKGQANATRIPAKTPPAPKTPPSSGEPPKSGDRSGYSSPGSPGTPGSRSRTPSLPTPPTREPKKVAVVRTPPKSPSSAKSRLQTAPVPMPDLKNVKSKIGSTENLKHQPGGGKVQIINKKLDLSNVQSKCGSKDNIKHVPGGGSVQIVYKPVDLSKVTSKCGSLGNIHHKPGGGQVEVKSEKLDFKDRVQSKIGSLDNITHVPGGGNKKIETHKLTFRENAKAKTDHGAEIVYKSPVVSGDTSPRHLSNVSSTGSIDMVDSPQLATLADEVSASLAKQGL

With B1 the “heparin-induced tau 2N4R aggregation, thioflavin fluorescence intensity ratio between tau with VHH and tau alone; VHH:tau 0.2:1 (46.2%) and 0.5:1 (25%)” value was 46.2%.

target: T1, biotinylated tau 2N4R (Homo sapiens, UniProt P10636-8, biotin (N-hydroxysuccimide-biotin conjugates, 5 M excess)); test: SPR; biotinylated tau 2N4R captured on a streptavidin chip (500 RU); VHHs as analytes, 0.125-2 uM, single-cycle kinetics; HBS-EP+ buffer; 1:1 Langmuir model; Kd calculated as koff/kon; conditions: both partners purified
T1 construct: tau protein, 2N4R isoform, NCBI NP_005901.2; Expressed from pET15b-tau; also called full-length tau; source: E. coli BL21 (DE3), purified (heating, cation exchange), then biotinylated
T1 sequence (P10636 other isoform, or with tags, fused parts or gaps): as above

First: B1
Second: B2
The Kd of the first is 2.9-fold higher: 147.8 ± 0.9 nM for the first, 51.1 ± 0.6 nM for the second.

B3 and B4 are within 1.5-fold of each other in Kd: 74.3 ± 0.8 nM for the first, 80.5 ± 1.5 nM for the second.

B5 and B6 are within 1.5-fold of each other in Kd: 61.2 ± 0.6 nM for the first, 80.8 ± 1.5 nM for the second.

First: B7
Second: B8
The Kd of the first is 1.8-fold higher: 41.8 ± 0.7 nM for the first, 22.7 ± 0.5 nM for the second. The second binds more tightly here.

Binder B9 has a Kd of 42.5 ± 0.7 nM.

B1 and B2 are within 1.5-fold of each other in koff: 0.00267 s⁻¹ for the first, 0.00205 s⁻¹ for the second.

Going from B3 to B4, the koff rises from 0.0014 s⁻¹ to 0.0021 s⁻¹ (1.5-fold).

Going from B5 to B6, the koff falls from 0.00207 s⁻¹ to 0.000882 s⁻¹ (2.3-fold).

Compared with B7, B8 is 2.7-fold higher in koff: 0.00089 s⁻¹ for the first, 0.00242 s⁻¹ for the second.

Binder B9 has a koff of 0.00277 s⁻¹.

Compared with B1, B2 is 2.2-fold higher in kon: 18100 M⁻¹ s⁻¹ for the first, 40100 M⁻¹ s⁻¹ for the second.

B3 and B4 are within 1.5-fold of each other in kon: 18800 M⁻¹ s⁻¹ for the first, 26000 M⁻¹ s⁻¹ for the second.

Compared with B5, B6 is 3.1-fold lower in kon: 33900 M⁻¹ s⁻¹ for the first, 10900 M⁻¹ s⁻¹ for the second.

Going from B7 to B8, the kon rises from 21300 M⁻¹ s⁻¹ to 107000 M⁻¹ s⁻¹ (5-fold).

In the case of B9, the kon is reported as 65300 M⁻¹ s⁻¹.
